For experiment [1], the target named is T1, Recombinant human sgM-CSF (human, UniProt P09603 33-255).
T1 construct: also called human secreted glycosylated M-CSF; Human M-CSF
T1 sequence: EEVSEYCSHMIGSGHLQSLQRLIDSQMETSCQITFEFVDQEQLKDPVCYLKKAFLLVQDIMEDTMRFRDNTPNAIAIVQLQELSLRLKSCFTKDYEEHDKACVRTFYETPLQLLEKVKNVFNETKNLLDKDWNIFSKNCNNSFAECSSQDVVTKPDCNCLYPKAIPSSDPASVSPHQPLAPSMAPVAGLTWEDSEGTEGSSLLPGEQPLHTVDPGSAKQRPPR
In words: Table 12 summary, criterion Binding, Human M-CSF; assay and antibody format not named there. As for the experimental part:
The monovalent affinity of the antibodies of the present disclosure was determined by soluble equilibrium titration (Haenel et al. (2005) Anal Biochem 339, 182-4).

Experiment [2] has as its target T2, Recombinant cynomolgus monkey sgM-CSF (cynomolgus (Macaca fascicularis), UniProt P09603 33-255 (human entry), limits assumed).
T2 construct: used also where only 'cynomolgus M-CSF' is printed (ELISA result, SET); also called cynomolgus sgM-CSF; cyno sgM-CSF
T2 chain: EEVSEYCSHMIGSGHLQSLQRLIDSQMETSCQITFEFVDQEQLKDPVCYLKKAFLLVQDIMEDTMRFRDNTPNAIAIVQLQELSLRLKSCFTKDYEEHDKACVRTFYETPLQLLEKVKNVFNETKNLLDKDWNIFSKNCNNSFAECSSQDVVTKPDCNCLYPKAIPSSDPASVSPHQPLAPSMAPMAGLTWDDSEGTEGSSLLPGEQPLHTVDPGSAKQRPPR
Put plainly: Receptor binding assay, inhibition of cynomolgus M-CSF binding to M-CSF receptor (competitor CSF1-R-Fc); Table 12 summary. On the procedure:
Complexes were then transferred to 384 well MSD plates coated with 2 μg/ml of the corresponding receptor. Plates were then washed and incubated with the streptavidin/ECL conjugate for 2 h with shaking at room temperature. 35 μl MSD read buffer T with surfactant was then added per well and subsequently measured using MSD Sector Imager 6000.

The target in experiment [3] is T1, Recombinant human sgM-CSF. Put plainly: Receptor binding assay, inhibition of human M-CSF binding to M-CSF receptor (competitor CSF1-R-Fc); Table 12 summary.
For experiment [4], the target named is T2, Recombinant cynomolgus monkey sgM-CSF. In words: cell-based or functional assay.
Experiment [5] addresses T1, Recombinant human sgM-CSF. Put plainly: cell-based or functional assay.
Experiment [6] deals with Antitrypsin (human) (human, UniProt P01009 25-418). In words: MSD specificity profiling, coated protein. On the procedure:
(§1) For this specificity profiling test the different proteins and controls were coated on two 384-well MSD plates with a concentration of 1 μg/ml at 4° C. over night. Plates were blocked with BSA and washed three times with PBS with 0.05% (v/v) Tween 20. Antibody samples were diluted to 100 nM and 10 nM in assay buffer (PBS with 0.5% (w/v) BSA, 0.05% (v/v) Tween 20). […] Samples and controls were incubated for three hours at room temperature. The plates were washed three times and 30 μl detection antibody (ECL-labeled anti-human Fab) were added per well and incubated for 1 h. After washing, MSD Read Buffer T with surfactant was added and electrochemiluminescence signals were detected using a Sector Imager 6000 (Meso Scale Discovery, Gaithersburg, Md., USA).

The target of experiment [7] is T3, Ovalbumin (chicken) (chicken, UniProt P01012 2-386).
T3 sequence (looked up): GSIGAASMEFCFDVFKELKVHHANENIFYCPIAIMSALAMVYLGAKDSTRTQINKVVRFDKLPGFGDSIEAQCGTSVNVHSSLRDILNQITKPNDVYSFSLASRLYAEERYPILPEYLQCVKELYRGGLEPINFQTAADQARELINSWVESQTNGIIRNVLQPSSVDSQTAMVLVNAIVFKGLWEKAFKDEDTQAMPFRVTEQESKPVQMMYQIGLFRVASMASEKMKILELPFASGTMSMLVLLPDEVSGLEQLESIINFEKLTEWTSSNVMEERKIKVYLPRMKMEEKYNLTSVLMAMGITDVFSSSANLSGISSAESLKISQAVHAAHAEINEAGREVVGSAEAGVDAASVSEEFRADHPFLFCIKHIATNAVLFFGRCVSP
Put plainly: MSD specificity profiling, coated protein. On the procedure: as §1

Experiment [8] has as its target T4, RNase B (cow) (cow, UniProt P61823 27-150).
T4 sequence (looked up): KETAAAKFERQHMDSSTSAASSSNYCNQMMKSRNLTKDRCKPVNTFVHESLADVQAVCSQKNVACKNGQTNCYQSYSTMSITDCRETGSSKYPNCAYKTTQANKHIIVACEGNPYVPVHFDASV
In words: MSD specificity profiling, coated protein. As for the experimental part: as §1

The target in experiment [9] is Cytochrome c (cow) (cow, UniProt P62894 2-105). Put plainly: MSD specificity profiling, coated protein. On the procedure: as §1
The target of experiment [10] is Serum albumin (human) (human, UniProt P02768 25-609). Put plainly: MSD specificity profiling, coated protein. As for the experimental part:
as §1

In experiment [11] the target is T5, RNase A (cow) (cow, UniProt P61823 27-150).
T5 sequence (looked up): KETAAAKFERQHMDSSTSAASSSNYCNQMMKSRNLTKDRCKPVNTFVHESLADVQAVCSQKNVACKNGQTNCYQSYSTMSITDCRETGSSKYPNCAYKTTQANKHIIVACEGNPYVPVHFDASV
In words: MSD specificity profiling, coated protein. On the procedure: as §1

For experiment [12], the target named is T6, Lectin (Lens culinaris) (Lens culinaris, UniProt P02870 31-210; P02870 218-269, limits assumed).
T6 sequence (looked up) 1: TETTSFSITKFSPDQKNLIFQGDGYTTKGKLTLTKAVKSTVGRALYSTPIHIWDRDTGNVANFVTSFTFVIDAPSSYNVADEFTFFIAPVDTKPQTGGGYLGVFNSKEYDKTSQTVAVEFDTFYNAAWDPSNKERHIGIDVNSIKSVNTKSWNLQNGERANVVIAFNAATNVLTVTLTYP
T6 sequence (looked up) 2: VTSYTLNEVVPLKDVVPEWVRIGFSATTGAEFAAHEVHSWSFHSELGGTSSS
Put plainly: MSD specificity profiling, coated protein. As for the experimental part: as §1

The target of experiment [13] is Myoglobin (horse) (horse, UniProt P68082 2-154). In words: MSD specificity profiling, coated protein. On the procedure:
as §1

Antitrypsin (human), sequence (P01009 25-418 limits assumed): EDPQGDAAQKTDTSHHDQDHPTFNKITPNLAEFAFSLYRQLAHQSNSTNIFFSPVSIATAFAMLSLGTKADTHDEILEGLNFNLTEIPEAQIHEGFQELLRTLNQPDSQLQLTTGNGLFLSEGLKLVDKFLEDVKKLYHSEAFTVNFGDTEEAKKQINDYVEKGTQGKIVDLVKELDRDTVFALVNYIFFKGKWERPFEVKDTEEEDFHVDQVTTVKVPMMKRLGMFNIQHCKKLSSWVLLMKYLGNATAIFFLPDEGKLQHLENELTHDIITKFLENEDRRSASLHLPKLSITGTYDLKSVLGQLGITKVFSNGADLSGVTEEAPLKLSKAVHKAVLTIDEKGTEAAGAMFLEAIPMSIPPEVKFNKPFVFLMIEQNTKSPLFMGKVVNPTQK
Myoglobin (horse), sequence (P68082 2-154 limits assumed): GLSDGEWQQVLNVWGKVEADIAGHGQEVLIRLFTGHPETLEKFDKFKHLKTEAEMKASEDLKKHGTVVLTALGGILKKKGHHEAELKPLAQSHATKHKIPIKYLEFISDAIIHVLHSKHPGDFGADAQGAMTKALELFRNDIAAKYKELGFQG
Cytochrome c (cow), sequence (P62894 2-105 limits assumed): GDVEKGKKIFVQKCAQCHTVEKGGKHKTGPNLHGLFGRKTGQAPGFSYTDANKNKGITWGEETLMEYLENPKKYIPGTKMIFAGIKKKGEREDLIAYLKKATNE

B1: Camille (format not stated) (antibody, V domains shown)
VH: QVQLQQSGPGLVKPSQTLSLTCAISGESVSTSSAAWNWIRQSPSRGLEWLGRTYYRSKWKHEYAVSVKSRITINPDTSKNQFSLQLNSVTPEDTAVYYCARDRYYYSAFDYWGQGTLVTVSS
VL: QSALTQPASVSGSPGQSITISCTGTSSDVGGYNSVSWYQQHPGKAPKLLIYAVSNRPSGVSNRFSGSKSGNTASLTISGLQAEDEADYYCASYDERFTRVFGGGTKLTVLG
notes: also called Antibody Camille
Consider B1, for which the Kd in experiment [1] stood at 18 pM. The IC50 worked out at 6 pM in experiment [2] and 4 pM in experiment [3]. Besides, the “Cell viability assay (IC50), Cynomolgus M-CSF” value in experiment [4] was determined as 3 pM. Moreover, the “Cell viability assay (IC50), Human M-CSF” value in [5] worked out at 2 pM. Also, the binding result in experiment [6] is “no binding (tested: 100 nM and 10 nM antibody)”; in experiment [7], “no binding (tested: 100 nM and 10 nM antibody)”; in experiment [8] it was “no binding (tested: 100 nM and 10 nM antibody)”; in experiment [9], “no binding (tested: 100 nM and 10 nM antibody)”; in experiment [10] it was “no binding (tested: 100 nM and 10 nM antibody)”; in experiment [11] it was “no binding (tested: 100 nM and 10 nM antibody)”. For the same molecule, the binding result is “no binding (tested: 100 nM and 10 nM antibody)” in experiment [12]; “no binding (tested: 100 nM and 10 nM antibody)” in experiment [13].

Broadly, the Kd is a measure of binding affinity in units of concentration. By IC50 is commonly meant the concentration that inhibits the measured activity by half.

The values above are taken from patent US20180057581A1 (MorphoSys, published 2018).
